Assay results taken from the supplement of paper PMC9112550, “Optimization of the antimicrobial peptide Bac7 by deep mutational scanning” (BMC Biology, 2022).

System: Escherichia coli TOP10
Assay: shrunken log2 fold change of peptide-encoding DNA abundance (4.5 h post-induction vs induction); higher = less antimicrobial activity (less host growth inhibition)
Conditions: time post-induction: 4.5 h; library: site-saturation at positions 5, 18, 19, 20
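Further: peptides expressed intracellularly from a pBAD plasmid library in pooled LB shake-flask culture, induced with 0.3% L-arabinose, DNA abundance read by NGS, three biological replicates, DESeq2 with apeglm shrinkage.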

| Sequence | shrunken log2 fold change |
| --- | --- |
| RRIRTRPPRLPRPRPRPQYAPRP | -0.317 |
| RRIRTRPPRLPRPRPRPRAVPRP | 0.617 |
| RRIRTRPPRLPRPRPRPRCEPRP | 0.117 |
| RRIRTRPPRLPRPRPRPRDAPRP | 0.881 |
| RRIRTRPPRLPRPRPRPRDNPRP | -0.239 |
| RRIRTRPPRLPRPRPRPRDQPRP | 0.224 |
| RRIRTRPPRLPRPRPRPREMPRP | 0.101 |
| RRIRTRPPRLPRPRPRPREYPRP | -0.00842 |
| RRIRTRPPRLPRPRPRPRFKPRP | 0.115 |
| RRIRTRPPRLPRPRPRPRFPPRP | 0.115 |
| RRIRTRPPRLPRPRPRPRFTPRP | 0.0679 |
| RRIRTRPPRLPRPRPRPRFVPRP | -0.279 |
| RRIRTRPPRLPRPRPRPRFYPRP | -0.367 |
| RRIRTRPPRLPRPRPRPRICPRP | -0.201 |
| RRIRTRPPRLPRPRPRPRIHPRP | 0.0773 |
| RRIRTRPPRLPRPRPRPRIVPRP | -0.0873 |
| RRIRTRPPRLPRPRPRPRKDPRP | -0.0522 |
| RRIRTRPPRLPRPRPRPRLLPRP | 0.0778 |
| RRIRTRPPRLPRPRPRPRLQPRP | 0.123 |
| RRIRTRPPRLPRPRPRPRMPPRP | 0.199 |
| RRIRTRPPRLPRPRPRPRMVPRP | 0.0186 |
| RRIRTRPPRLPRPRPRPRMWPRP | 0.227 |
| RRIRTRPPRLPRPRPRPRNIPRP | -0.623 |
| RRIRTRPPRLPRPRPRPRPVPRP | 0.407 |
| RRIRTRPPRLPRPRPRPRPWPRP | 0.0956 |

| Sequence | shrunken log2 fold change |
| --- | --- |
| RRIRTRPPRLPRPRPRPRQGPRP | 0.337 |
| RRIRTRPPRLPRPRPRPRQSPRP | 0.159 |
| RRIRTRPPRLPRPRPRPRQVPRP | -0.0471 |
| RRIRTRPPRLPRPRPRPRRKPRP | 0.0652 |
| RRIRTRPPRLPRPRPRPRSCPRP | 0.423 |
| RRIRTRPPRLPRPRPRPRTAPRP | 2.87 |
| RRIRTRPPRLPRPRPRPRTRPRP | 0.204 |
| RRIRTRPPRLPRPRPRPRVVPRP | 1.87 |
| RRIRTRPPRLPRPRPRPRWLPRP | 0.369 |
| RRIRTRPPRLPRPRPRPRWRPRP | 0.483 |
| RRIRTRPPRLPRPRPRPSCGPRP | -0.0561 |
| RRIRTRPPRLPRPRPRPSCTPRP | -0.643 |
| RRIRTRPPRLPRPRPRPSDCPRP | 0.131 |
| RRIRTRPPRLPRPRPRPSDHPRP | -0.274 |
| RRIRTRPPRLPRPRPRPSDMPRP | 0.185 |
| RRIRTRPPRLPRPRPRPSGDPRP | -0.221 |
| RRIRTRPPRLPRPRPRPSGTPRP | -0.0272 |
| RRIRTRPPRLPRPRPRPSHGPRP | 0.0388 |
| RRIRTRPPRLPRPRPRPSIFPRP | -0.122 |
| RRIRTRPPRLPRPRPRPSIQPRP | -0.865 |
| RRIRTRPPRLPRPRPRPSLRPRP | -0.294 |
| RRIRTRPPRLPRPRPRPSLYPRP | -0.522 |
| RRIRTRPPRLPRPRPRPSMQPRP | -0.244 |
| RRIRTRPPRLPRPRPRPSPTPRP | 0.0477 |
| RRIRTRPPRLPRPRPRPSPVPRP | 0.0854 |

| Sequence | shrunken log2 fold change |
| --- | --- |
| RRIRTRPPRLPRPRPRPSQYPRP | -0.142 |
| RRIRTRPPRLPRPRPRPSRRPRP | 0.128 |
| RRIRTRPPRLPRPRPRPSSRPRP | 0.543 |
| RRIRTRPPRLPRPRPRPSTTPRP | -0.0853 |
| RRIRTRPPRLPRPRPRPSVHPRP | -0.237 |
| RRIRTRPPRLPRPRPRPSVVPRP | -0.384 |
| RRIRTRPPRLPRPRPRPSYNPRP | -0.591 |
| RRIRTRPPRLPRPRPRPTARPRP | 0.0618 |
| RRIRTRPPRLPRPRPRPTCDPRP | 0.0699 |
| RRIRTRPPRLPRPRPRPTGLPRP | -0.0841 |
| RRIRTRPPRLPRPRPRPTHWPRP | 0.987 |
| RRIRTRPPRLPRPRPRPTLYPRP | -0.102 |
| RRIRTRPPRLPRPRPRPTMCPRP | -0.416 |
| RRIRTRPPRLPRPRPRPTNDPRP | -0.547 |
| RRIRTRPPRLPRPRPRPTPTPRP | 0.289 |
| RRIRTRPPRLPRPRPRPTQAPRP | 0.111 |
| RRIRTRPPRLPRPRPRPTRGPRP | 0.705 |
| RRIRTRPPRLPRPRPRPTSEPRP | -0.126 |
| RRIRTRPPRLPRPRPRPTTCPRP | -0.00487 |
| RRIRTRPPRLPRPRPRPTTMPRP | -0.109 |
| RRIRTRPPRLPRPRPRPTVAPRP | 0.22 |
| RRIRTRPPRLPRPRPRPTVGPRP | 0.155 |
| RRIRTRPPRLPRPRPRPTVYPRP | -0.0364 |
| RRIRTRPPRLPRPRPRPTWPPRP | 0.439 |
| RRIRTRPPRLPRPRPRPTWVPRP | 0.149 |
